Conditions in all cases: protein: recombinant; tags: His-tag removed (PreScission); blunt
The target in data set [1] is T1, MeCP2 NTD-MBD-ID (UniProt P51608 1-206). In words: ITC; pH 7; ID site of two-site model; ITC: Tris 50 mM, pH 7, 20 °C (also 15 and 17.5 °C; Pipes or phosphate 50 mM, pH 7), no added NaCl unless stated; protein 3-5 uM in cell, dsDNA 50 uM titrant. (Isothermal titration calorimetry measures the heat released or taken up as one component is titrated into another.)
Data set [2] has as its target T1, MeCP2 NTD-MBD-ID. Briefly: ITC; pH 7; MBD site of two-site model; ITC: Tris 50 mM, pH 7, 20 °C (also 15 and 17.5 °C; Pipes or phosphate 50 mM, pH 7), no added NaCl unless stated; protein 3-5 uM in cell, dsDNA 50 uM titrant.
For data set [3], the target named is MeCP2 NTD-MBD (UniProt P51608 1-162). Briefly: ITC; pH 7; ITC: Tris 50 mM, pH 7, 20 °C (also 15 and 17.5 °C; Pipes or phosphate 50 mM, pH 7), no added NaCl unless stated; protein 3-5 uM in cell, dsDNA 50 uM titrant.
Data set [4] has as its target MeCP2 MBD (UniProt P51608 78-162). The data set is described as above.

B1: BDNF promoter IV 45 bp unmethylated (dsDNA)
DNA 1: GCCATGCCCTGGAACGGAACTCTCCTAATAAAAGATGTATCATTT
DNA 2: AAATGATACATCTTTTATTAGGAGAGTTCCGTTCCAGGGCATGGC
B1: the Kd (as a rule, the concentration at which binding is half-saturated) in data set [1] was 250 nM; in data set [2] it was 1.9 nM; in data set [3], 210 nM; in data set [4], 450 nM.

B2: BDNF promoter IV 45 bp mCpG (dsDNA)
DNA 1: B1 DNA 1
DNA 2: B1 DNA 2
modifications: 5-methylcytosine at C15 of strand 1 and C30 of strand 2 (symmetric mCpG)
As for B2, the Kd in data set [1] was 62 nM; in data set [2], 0.56 nM; in data set [3], 90 nM; in data set [4], 240 nM.

These data come from publication PMC5282554, “The intervening domain from MeCP2 enhances the DNA affinity of the methyl binding domain and provides an independent DNA interaction site”.
